{"source": "paper PMC3921932", "molecular_target": "recombinant manganese superoxide dismutase (MnSOD) from Lactococcus lactis M4 (Lactococcus lactis M4) (UniProt P0A4J2)", "assay": "SEC; Superose 12 HR 16/70 packed column, 20 mM phosphate buffer, 0.15 M NaCl, pH 7.0, 0.75 mL/min; calibrated with aprotinin, cytochrome c, carbonic anhydrase and BSA; estimated mass 63 kDa against 55.4 kDa theoretical for a dimer"}
{"substance": "recombinant manganese superoxide dismutase (MnSOD) from Lactococcus lactis M4 (from UniProt P0A4J2 1-206) (enzyme)", "values": [{"measurement": "stoichiometry N", "result": 2}]}
